Consider 1 molecule from patent publication US20260007740A1 (SPYBIOTECH, published 2026).

This assay addresses T1, SpyCatcher-HBsAg (Hepatitis B virus (adw serotype) for …).
T1 construct: Expressed in Pichia pastoris; also called HBsAg VLP monomer; SpyCatcher-HBsAg VLP
Briefly: isopeptide conjugation in TBS, followed by SDS-PAGE and Western blot. For orientation: Immunoblotting shows a protein as a band on a membrane.

B1: RSV-F-SpyTag (RSV-F Sc9-10 DS-Cav1 A149C Y458C-SpyTag-Ctag) (other)
chain: QNITEEFYQSTCSAVSKGYLSALRTGWYTSVITIELSNIKENKCNGTDAKVKLIKQELDKYKNAVTELQLLMQSTPATGSGSAICSGVAVCKVLHLEGEVNKIKSALLSTNKAVVSLSNGVSVLTFKVLDLKNYIDKQLLPILNKQSCSISNIETVIEFQQKNNRLLEITREFSVNAGVTTPVSTYMLTNSELLSLINDMPITNDQKKLMSNNVQIVRQQSYSIMCIIKEEVLAYVVQLPLYGVIDTPCWKLHTSPLCTTNTKEGSNICLTRTDRGWYCDNAGSVSFFPQAETCKVQSNRVFCDTMNSRTLPSEVNLCNVDIFNPKYDCKIMTSKTDVSSSVITSLGAIVSCYGKTKCTASNKNRGIIKTFSNGCDYVSNKGVDTVSVGNTLYCVNKQEGKSLYVKGEPIINFYDPLVFPSDEFDASISQVNEKINQSLAFIRKSDELLSAIGGYIPEAPRDGQAYVRKDGEWVLLSTFLGSGGSGAHIVMVDAYKPTKEPEA
notes: Pre-fusion-stabilised single-chain RSV F with T4 fibritin trimerisation motif; Expressed in ExpiCHO cells, purified through the C-tag; also called RSV-F-SpyTag-Ctag; RSF-F-SpyTag
B1: the binding result is “binds”.
